The values that follow come from patent US20090162369A1, “SYNTHETIC CHIMERIC PEPTIDES” (priority 2007, published 2009).

One assay addresses p145 (Streptococcus pyogenes serotype M5, UniProt P02977). Conditions: FIG. 3. How it is done:
The purified anti-TN peptide antibodies were tested for their ability to bind to p145.

In a further assay the test system is GAS. Conditions: cited from earlier work.
Another assay deals with multiple isolates of GAS. Conditions: Pruksakorn et al., 1994a; cited from earlier work.
Another assay deals with B10.BR mice. The experiment in a line: Peptide-specific serum IgG titres of B10.BR mice immunised with peptides conjugated to diphtheria toxoid. Format: in vivo. Conditions: peptides conjugated to DT. An excerpt: FIG. 9: The geometric mean of peptide-specific serum IgG titres of B10.BR mice immunised with different peptides conjugated to diphtheria toxoid (DT). Control mice were immunised with vehicle (PBS). Five mice were immunised per group and error bars show the standard error of the mean (SEM). The highest titres were obtained after primary immunisation plus two booster injections. Although titres had decreased 43 days after the final boost (Day 71), they remained reasonably high.
Female B10.BR mice were immunized with TN18, TN19, J18 and J19 peptides conjugated to diphtheria toxoid (DT). The following immunization protocol was used.
The peptide specific titres in the murine sera samples on day 35, after primary immunization and two boosters, were analyzed.
The self-peptide titres throughout the immunization protocol were analyzed at day 20, day 27, day 35 and day 71.

Consider LRRDLDAEDEAKKQVEKALEC [TN peptide 3], for which the “binding affinity of purified anti-TN peptide antibodies for p145” value with p145 is recorded as “highest binding affinities”.
Still for that read-out and setting: in the case of LRRDLDAEREAKKQVERALEC [TN peptide 5] it was “highest binding affinities”.
On the same count and under the same terms, in the case of LRRDLDASNEAKKQVEMALEC [TN peptide 14] it was “highest binding affinities”.
On to LRRDLDASREAKKQVEKALE [p145], for which, in the assay with GAS, the “inhibition of in vitro killing mediated by human sera” value is listed as “can inhibit in vitro killing mediated by human sera”. In addition, the “opsonisation and killing of GAS by mouse antibodies raised against the peptide” value in the assay with multiple isolates of GAS is “can opsonise and kill multiple isolates of GAS”.
As for LRRDLDASREAKNQVEMALEC [TN peptide 19], the “binding affinity of purified anti-TN peptide antibodies for p145” value with p145 is recorded as “highest binding affinities”.
On the same count and under the same terms, for LRRDLDASREAKNQVERALEC [TN peptide 18] the value was “highest binding affinities”; for LRRDLDAVNEAKKQVEKALEC [TN peptide 7], “highest binding affinities”; for LRRDLDAVREAKKQVEMALEC [TN peptide 11], “highest binding affinities”.
In the case of QAEDKVKQSREAKNQVEMALKQLEDKVQ [J19], the “immunogenicity compared with the peptides disclosed in WO96/11944” value in the assay with B10.BR mice is “improved immunogenicity”.
On the same count and under the same terms, for QAEDKVKQSREAKNQVERALKQLEDKVQ [J18] the value was “improved immunogenicity”.
